In assay [1] the target is T1, B7-2 on the surface of WEHI 231 cells (mouse) (UniProt P42082).
T1 sequence (looked up): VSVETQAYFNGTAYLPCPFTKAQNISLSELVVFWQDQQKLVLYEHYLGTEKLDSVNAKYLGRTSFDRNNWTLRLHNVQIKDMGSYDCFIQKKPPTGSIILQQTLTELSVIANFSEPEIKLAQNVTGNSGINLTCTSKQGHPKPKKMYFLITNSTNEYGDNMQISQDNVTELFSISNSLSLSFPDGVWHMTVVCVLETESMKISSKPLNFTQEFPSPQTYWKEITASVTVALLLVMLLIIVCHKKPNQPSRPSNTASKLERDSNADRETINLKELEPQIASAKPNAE
Briefly: flow cytometry, titration on WEHI 231 cells, which carry both B7-1 and B7-2. Background: A flow cytometer gives signals particle by particle.

The target of assay [2] is B7-1 on the surface of mouse cells (WEHI 231, undifferentiated ES cells) (mouse) (UniProt Q00609). The assay is described as above.
Sequence of UniProt Q00609 (Q00609 38-306): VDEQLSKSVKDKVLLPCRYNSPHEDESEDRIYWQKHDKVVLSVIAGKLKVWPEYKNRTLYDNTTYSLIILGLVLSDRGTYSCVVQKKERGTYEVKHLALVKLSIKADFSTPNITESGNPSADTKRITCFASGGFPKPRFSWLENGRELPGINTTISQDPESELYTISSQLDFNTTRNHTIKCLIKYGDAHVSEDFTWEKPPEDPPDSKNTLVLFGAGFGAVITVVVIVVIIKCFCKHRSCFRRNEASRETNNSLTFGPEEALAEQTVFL
Assay [3] concerns the target ICOS-ligand (GL50) on the surface of mouse cells (WEHI 231, undifferentiated ES cells, splenocytes) (mouse) (UniProt Q9JHJ8). As to the kind of experiment: two-colour flow cytometry, Balb/C splenocytes, cells stained by anti-CD24.
Sequence of UniProt Q9JHJ8 (Q9JHJ8 44-322): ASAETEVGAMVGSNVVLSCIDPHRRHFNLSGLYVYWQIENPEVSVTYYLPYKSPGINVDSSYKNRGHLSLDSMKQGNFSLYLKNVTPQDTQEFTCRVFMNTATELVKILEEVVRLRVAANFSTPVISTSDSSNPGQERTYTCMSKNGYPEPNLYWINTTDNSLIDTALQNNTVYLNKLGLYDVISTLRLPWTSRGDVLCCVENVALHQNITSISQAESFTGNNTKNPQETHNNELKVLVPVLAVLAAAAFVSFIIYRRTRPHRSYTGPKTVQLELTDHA
For assay [4] the target is unchanged. Briefly: two-colour flow cytometry, Balb/C splenocytes, cells stained by anti CD40.
The target is the same in assay [5]. As to the kind of experiment: two-colour flow cytometry, Balb/C splenocytes, cells stained by anti-CD11B.
Assay [6] shares this target. Briefly: two-colour flow cytometry, Balb/C splenocytes, cells stained by anti class II.
Assay [7] shares this target. Briefly: two-colour flow cytometry, RAG1-/- splenocytes, cells stained by anti-CD24.
Assay [8] shares this target. As to the kind of experiment: two-colour flow cytometry, Balb/C splenocytes, cells stained by anti-pan NK.
Assay [9] shares this target. As to the kind of experiment: two-colour flow cytometry, Balb/C splenocytes, cells stained by anti-CD8a.
Assay [10] has the same target. As to the kind of experiment: two-colour flow cytometry, RAG1-/- splenocytes, cells stained by anti-CD45R/B220.
For assay [11] the target is unchanged. Briefly: flow cytometry, indirect staining of undifferentiated CCE ES cells.
For assay [12] the target is unchanged. Briefly: flow cytometry, titration on WEHI 231 cells.
For assay [13] the target is unchanged. Briefly: two-colour flow cytometry, RAG1-/- splenocytes, cells stained by anti-pan NK.
Assay [14] shares this target. As to the kind of experiment: two-colour flow cytometry, RAG1-/- splenocytes, cells stained by anti class II.
Assay [15] shares this target. As to the kind of experiment: two-colour flow cytometry, Balb/C splenocytes, cells stained by anti CD69.
Assay [16] has the same target. Briefly: two-colour flow cytometry, RAG1-/- splenocytes, cells stained by anti-CD4.
Assay [17] shares this target. As to the kind of experiment: two-colour flow cytometry, Balb/C splenocytes, cells stained by anti-CD11C.
For assay [18] the target is unchanged. As to the kind of experiment: two-colour flow cytometry, Balb/C splenocytes, cells stained by anti-CD4.
Assay [19] shares this target. Briefly: two-colour flow cytometry, RAG1-/- splenocytes, cells stained by anti CD69.
The target is the same in assay [20]. As to the kind of experiment: two-colour flow cytometry, Balb/C splenocytes, cells stained by anti-CD19.
Assay [21] shares this target. Briefly: two-colour flow cytometry, RAG1-/- splenocytes, cells stained by anti-CD11C.
The target is the same in assay [22]. As to the kind of experiment: two-colour flow cytometry, Balb/C splenocytes, cells stained by anti-CD45R/B220.
Assay [23] has the same target. Briefly: two-colour flow cytometry, Balb/C splenocytes, cells stained by anti-CD3.
Assay [24] shares this target. Briefly: two-colour flow cytometry, RAG1-/- splenocytes, cells stained by anti-CD11B.

In assay [1], “mCTLA4-mIgG2am fusion protein (from UniProt P09793 36-161) (Fc fusion)” yielded a concentration at which staining was clearly detectable of 8 ng/mL and a fold binding affinity against mICOS-mIgG2am binding to GL50 on WEHI cells of more than 100 fold. Besides, in assay [2], the concentration at which staining was clearly detectable was determined as 8 ng/mL and the fold binding affinity against mICOS-mIgG2am binding to GL50 on WEHI cells was more than 100 fold.

B1: mICOS-mIgG2am fusion protein (Fc fusion)
chain: EINGSADHRMFSFHNGGVQISCKYPETVQQLKMRLFREREVLCELTKTKGSGNAVSIKNPMLCLYHLSNNSVSFFLNNPDSSQGSYYFCSLSIFDPPPFQERNLSGGYLHIYESQLCCQLKLEPRGPTIKPCPPCKCPAPNLEGGPSVFIFPPKIKDVLMISLSPIVTCVVVDVSEDDPDVQISWFVNNVEVHTAQTQTHREDYNSTLRVVSALPIQHQDWMSGKAFACAVNNKDLPAPIERTISKPKGSVRAPQVYVLPPPEEEMTKKQVTLTCMVTDFMPEDIYVEWTNNGKTELNYKNTEPVLDSDGSYFMYSKLRVEKKNWVERNSYSCSVVHEGLHNHHTTKSFSRTPGK
As for B1, the % ICOS-lg positive was found to be 94% in assay [3]; 97% in assay [4]; 26% in assay [5]; 95% in assay [6]; 28% in [7]; 20% in assay [8]. Further, the % ICOS-lg positive amounted to 10% in assay [9]; 5% in assay [10]; 3% in [13]; 3% in [14]; 25% in assay [15]; 45% in assay [16]. The % ICOS-lg positive stood at 43% in [17]; 8% in assay [18]; 5% in [19]; 97% in assay [20]; 55% in [21]; 97% in [22]. Besides, the % ICOS-lg positive in assay [23] worked out at 10%; in assay [24] it was 31%. Moreover, in assay [11], the fluorescence shift over background stood at 0.5 log. Further, in assay [12], the concentration from which staining was minimally detectable was determined as 1 µg/mL.

The values are drawn from EP1900816A2.
